Test: yeast display, Sf9 membrane polyspecificity reagent, FACS + sequencing; frameworks hold sequencing errors
How it was run: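 In a synthetic yeast display library (Saccharomyces cerevisiae BJ5465), nanobody expression was induced with galactose for 36–48 hours. FACS gates were set low and high (top ~1%) using anti-HA fluorescence for expression and streptavidin fluorescence for binding of the Sf9 membrane reagent. Each polyreactivity label is drawn from the gate of origin.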

Row | Sequence | polyreactivity (PSR sort gate)
1 | QVQLVESGGGLVQAGGSLRLSSAASGSIFLFYAMGWYRQAPGKERELVATITTGAGSTYYADSVKGRFTISRDNAKNTVFLQMNSLKPEDTAVYYCAATVSYDFGYVAVSYDYWGQGTQVTVSS | low polyreactivity
2 | QVQLVESGGGLVQAGGSLRLSSAASGSIFNYNAMGWYRQAPGKERELVAAISSSGSTNYADSVKGRFTISRDNAKNTVYLQMNSLKPEDTAVYYCAADYGSYGVVRAVSIEYEYWGQGTQVTVSS | low polyreactivity
3 | QVQLVESGGGLVQAGGSLRLSSAASGSIFQDYAMGWYRQEPGKERELVAGINWRGDDTYADSVKGRFTISRDNAKNTVYLQMNSLKPEDTAVYYCNAEDWGYGYDYWGQGTQVTVSS | low polyreactivity
4 | QVQLVESGGGLVQAGGSLRLSSAASGSIFQYYTMGWYRQAPGKERELVASISSDGSTYYADSVKGRFTISRDNAKNTVYLQMNSLKPEDTAVYYCADVLWEPPVHPGYDYWGQGTQVTVSS | low polyreactivity
5 | QVQLVESGGGLVQAGGSLRLSSAASGSIFRNAMGWYRQAPGKERELVAGINGSGGSTYYADSVKGRFTISRDNAKNTVYLQMNSLKPEDTAVYYCAAGTSKPTPIYGYWGQGTQVTVSS | low polyreactivity
6 | QVQLVESGGGLVQAGGSLRLSSAASGSIFRSNAMGWYRQAPGKERELVAAIDYSGTSTTYADSVKGRFTISRDNAKNTVYLQMNRLKPEDTAVYYCNADGYYRGYWSGYEYWGQGTQVTVSS | low polyreactivity
7 | QVQLVESGGGLVQAGGSLRLSSAASGSIFSIYAMGWYRQAPGKERELGAAITWSGGSTYYADSVKGRFTISRDNAKNTVYFQMNSLKPEDTAVYYCAAEIWFYYGGRKQRGGYWGQGTQVTVSS | high polyreactivity
8 | QVQLVESGGGLVQAGGSLRLSSAASGSIFSSYAMGWYRQAPGKERELVAAITKRADRTNYADSVKGRFTISRDNAKNTVYLQMNSLKPEDTAVYYCNAEGQNDHPSNGYISYKYDYWGQGTQVTVSS | low polyreactivity
9 | QVQLVESGGGLVQAGGSLRLSSAASGSIFVKNARGWYRQAPGKVRELVARISFSGGSTYYADSVKGRFTISRDNAKNTVYLQMNSLKPEDTAVYYCAKTVLRTEYGWWIKFDYWGQVTQVTVSS | low polyreactivity
10 | QVQLVESGGGLVQAGGSLRLSSAASGSIFYGYAMGWYRQAPGKERELVATISWSAGSTYYADSVKGRFTISRDNAKTTVYLQMNSLKPEDTAVYYCATRVFTSSYRYRYGYWGQGTQVTVSS | high polyreactivity
11 | QVQLVESGGGLVQAGGSLRLSSAASGSIFYRYAMGWYRQAPGKERELVAAITQSTDSTYYADSVKGRFTISRDNAKYNVYLQMNSLKPEDTAVYYCAAYLVYYRPYAYGYWGQGSQVTVSS | low polyreactivity
12 | QVQLVESGGGLVQAGGSLRLSSAASGSIFYVYAMGWYRQAPGKERELVAAISGGGGSTYYADSVKGRFTISRDNAKNTVYLQMNSLKPEDTAVYYCAADLSGGPYLGGYDYWGQGTQVTVSS | high polyreactivity
13 | QVQLVESGGGLVQAGGSLRLSSAASGSLFDGNAMGWYRQAPGKEREFVAAITSSDGSTSYADSVKGRFTISRDNAKNTVYLQMNSLKPEDTAVYYCNVDDYFWPGAKFDYWGQGSQVTVSS | low polyreactivity
14 | QVQLVESGGGLVQAGGSLRLSSAASGSTFFTNALGWYRPAPGKERELGAVITKRGGSTYYADSVKGRFTISRDNAKNPVYLQMNSLKPEDTAVYYCAARIPKQQGYGYWGQGTQVTVSS | high polyreactivity
15 | QVQLVESGGGLVQAGGSLRLSSAASGSTFGPYAMGWYRQAPGKERELVATITRNGGSTYYADSVKGRFTISRDYAKNTVYLQMNSLKPEETAFYSCNAEGRWSSFTQRMDYWGQGTQVNVSS | low polyreactivity
16 | QVQLVESGGGLVQAGGSLRLSSAASGSTFLRYAMGWYRQAPGKERELVAAISYSGGSTYYADSVKGRFTISRDNAKNTVYLQMNSLIPQDTAVNYCNAGVFANDNGGRRDHFTWEYEYWGQGTQVTVSS | low polyreactivity
17 | QVQLVESGGGLVQAGGSLRLSSAASGSTFRYNTMGWYRQAPGKERELVAAINISSSSTYYADSVKGRFTISRDNAKNTVYFQINSLKPEDTAVYYCAKRDYVPIATDENDDYWGQGTQVTVSS | low polyreactivity
18 | QVQLVESGGGLVQAGGSLRLSSAASGSTFSDYAMGWYRQAPGKERELVAAISVSDGSTYYADSVKGRFTISRDNAKNTVYLQMNSLKPEDTAVYYCAAEYPYFVYSYFRFDYWGQGTQVTVSS | low polyreactivity
19 | QVQLVESGGGLVQAGGSLRLSSAASGSTFTRNGMGWYRQAPGKERELVAVISGSSSSTYYADSVKGRFTISRDNAKNTVYLQMNSLKPEDTAVYYCAARRYYGYAQYYYWGQGTQVTVSS | high polyreactivity
20 | QVQLVESGGGLVQAGGSLRLSSAASGSTFVVNAMGWYRQAPGKERELVAAITQSGGSTFYADSVKGRFTISRDNAKNTVYLQMNSLKPEDTAVYYWGQGTQLTVSS | low polyreactivity
21 | QVQLVESGGGLVQAGGSLRLSSAASGSTFWNNVMGSYRQATGKERELVAAITYSGGITYADSVKGRFTISRDNAKNTVYLEMNSLKPEDTAVYYCAADSKYKYDSWGQGTQVTVSS | low polyreactivity
22 | QVQLVESGGGLVQAGGSLRLSSAASGSTFYYNSMGWYRQAPGKETELVAGITRGGSTNYADSVKGRFTISRDNAKNTVYLQMNSLKPEDSAVYYCAKRTYFRGSSGYYYWGQGTQVTVSS | high polyreactivity

Row | Sequence | polyreactivity (PSR sort gate)
23 | QVQLVESGGGLVQAGGSLRLSSAASGSTSDNAMGWYRQAPGKEMEFVAAITSSGGSTTYADSVKGRFTISRDNAKNTVYLQMNSLKPEDTAVYYCNAGRVYYSNGYDYWGQGTQVTVSS | low polyreactivity
24 | QVQLVESGGGLVQAGGSLRLSSAASGSTYVGYTMGWYRQAPGKERELVAAITRRSGSTYYAVSVKGRFTISRDNAKNTVYLQLNSLKPEDTAVYYCAKDFSRYSRVAHTEHDYWGQGTQVTVSS | high polyreactivity
25 | QVQLVESGGGLVQAGGSLRLSSAASGYFNFFYAMGRYRQAPGKERELVASITYRGGSTYYADSVKGRFTLSRDNSKNTVYLQMNRLKPEDTAVYYCNVDGGGPLGPQGFPFDYWGQGTQVTVSS | low polyreactivity
26 | QVQLVESGGGLVQAGGSLRLSSAASGYIFQYTAMGCYRQAPGKVRELVAAIRYRGTSTYYADSVKGRFTISRDNAKNTVYLQRNSLKPEDTAVYYCAADRVPGRGFFRYGYWGQGTQVTVSS | high polyreactivity
27 | QVQLVESGGGLVQAGGSLRLSSAASGYTFGFYGLGWYRQAPGKERELVAAISRSGGGSTYYADSVKGRFTISRDNAKNSVYLQMNSLKPEDSAVYYCNRDFDDEMWGQGTQVTVSS | low polyreactivity
28 | QVQLVESGGGLVQAGGSLRLSSAASVIIFSNNAMGWSRQAPGKERELVAAISRSGGSTYYADSLKGRFTISRDNAKNTVYLQMNSLKPEETAVYYCAARARSRYDSWGQGTQVTVSS | low polyreactivity
29 | QVQLVESGGGLVQAGGSLRLSSADSGLTIKYYAMGWYRQAPGKERELVASILQSGSSTYYADSVKGRFTISRDYAKNTFYLQMNSMKPEDTAVYYCSAPRYCRSYGYDYWGQGTQVTVSS | high polyreactivity
30 | QVQLVESGGGLVQAGGSLRLSSAGSGRTFLANAMGWYRQAPGKEREFVAAIDWRTGSTYYADSVKGRFTISRDNAKNTVYLLMNSLKPEDTAVYYCAKDSSSYYYAHFYDWGQGTQVTVSS | high polyreactivity
31 | QVQLVESGGGLVQAGGSLRLSSAHSAIIFCLNSMGWYRQEPGKERELVAAITITDGSTYYADSVKGRFTISRDNAKNTVYLQMNSLKPEDTAVYYCNADAIVSPYRLWTVTFYYWGQGTQVTVSS | low polyreactivity
32 | QVQLVESGGGLVQAGGSLRLSSASSGRIFAIYVMGWYRQAHGKERELVAAITSGGNTNYADSVKGRFTISRDNAKNTVYLQINSLKPEDSAVYYCAAFYYRRSFTLSYSSFDYWGQGTQVTVSS | low polyreactivity
33 | QVQLVESGGGLVQAGGSLRLSSAVSGNTFGPYDMGWYRQAPGKERELVAGNTSGGSTYYADSVKGRFTISLDNAMNTVYLQMNSLKPEDTAVYYCAADYFLWVYWYDYWGQGTQVTVSS | high polyreactivity
34 | QVQLVESGGGLVQAGGSLRLSSGASGSTFVTYAMGWYRQAPGKEREFVAAISSTGTGRTYYADSVKGRFTISRDNAKNPVYLQMNSLKPEDTAVYYCAADLYGTYDYWGQGTQVTVSS | low polyreactivity
35 | QVQLVESGGGLVQAGGSLRLSSPASGFTFYYKGMGWYRQAPGKERELVATITSGGSTYYADSVKGRFTISSDNAKNTVYLQMNSLKPEDTAVYYCNRRISWRYVPTYDYWGQGTQVTVSS | high polyreactivity
36 | QVQLVESGGGLVQAGGSLRLSSPASGRIFITNAMGWYRQAPGKERELVASITVSGDSTYYADSVKGRFTISRDNAKNPVYLQMNSLKPEDTAVYYCAADYYALDKVLGNNYWGQGTQVTVSS | low polyreactivity
37 | QVQLVESGGGLVQAGGSLRLSSTASGFTFKLYAMGWERHATGKERELVAAISSYGGRTYYADSVKGRFTISRDNAKNTVYLQMKSLKPEDTAVYYCKAVRTVNDYHYDYWGQGTQVTVSS | high polyreactivity
38 | QVQLVESGGGLVQAGGSLRLSWAASGFTFDSNAMGWSRPAPGKEREVVAAISWSGASTYADSVKGRFTISRDNAKNTVYLQMNSLKPEDTAVYYCAADDEDVLFDYWGQGTQVTVSS | low polyreactivity
39 | QVQLVESGGGLVQAGGSLRLSWAASGFTFGVNTMGWYRQAPGKERELVADISSGGRTNYADSVKGRFTISRDNAKNTVYLQMNRLKPEDTAVYYCAADNYSGTETDLTTLLDYWGQGTQVSVSS | low polyreactivity
40 | QVQLVESGGGLVQAGGSLRLSWAASGFTLTRNAMGWYTQAPGKERELVAAISWSGGTTYYADSVKGRFTISRDNAKNPVYLQMNSLKRDDTAVYYCNTASWRAQYYYWGQGTRVTVSS | high polyreactivity
41 | QVQLVESGGGLVQAGGSLRLSWAASGRIFGRYAMGWYRQAPGKERELVAAISYSGGSTYYADSVKGRFTISRDNAKNTVYLQMNSLKPEDTAVFYCNRYPTYGRTSYVTYYYWGQGTQVTVSS | high polyreactivity
42 | QVQLVESGGGLVQAGGSLRLSWAASGRIIHYNVMGWYRQPPGKERDLVAAIRGGGRSTYYADSVKGRFTISRDNAKNTVYLQMNSLKPEDTAVYYCAKSLSQNTYYHQGYYDDNYWGQGTQVTVSS | low polyreactivity
43 | QVQLVESGGGLVQAGGSLRLSWAASGSIFQYVYAMGWYRQAPGKERELVATITWSGGSTYYSDSVKGRFTISRDNAKNTVYLQMNSLKPEDTAVYYCAAESIYYPVAQYYYSFEYWGQGTQVTVSS | low polyreactivity

From the nanobody polyreactivity screen of Harvey et al. (2022)
